These results are taken from patent publication US20020142982A1, “Method for regulating angiogenesis” (priority 1999, published 2002).

The experiment deals with HA-tagged wild-type Akt (UniProt P31749). Kind of experiment: cell-based or functional assay.

In turn, “T236A EDG-1 mutant receptor (from UniProt P21453 1-382)” returned a restoration of S1P-induced HUVEC chemotaxis by increasing wild-type Akt virus of 65%.
